Measured values reported in patent publication US20150322160A1 (Bayer, published 2015).

B1: MF-J-SPDP-DM4 (antibody, V domains shown)
VH: QVELVQSGAEVKKPGESLKISCKGSGYSFTNYWIGWVRQMPGKGLEWMGVIMPSDSYTRYSPSFQGQVTISADKSISTAYLQWSSLKASDTAMYYCARYGHGMYGGALDVWGQGTLVTVSS
VL: DIVLTQSPATLSLSPGERATLSCRASQSVRSSRLAWYQQKPGQAPRLLIYGASKRATGVPARFSGSGSGTDFTLTISSLEPEDFATYYCQQYYDFPPTFGQGTKVEIKR
modifications: DM4 maytansinoid conjugated via SPDB (printed SPDP in Table 2) linker; DM4/Ab 2.8; attachment residues not stated
B2: MOR06640-SPDP-DM4 (antibody, V domains shown)
VH: QVQLVQSGAEVKKPGESLKISCKGSGYSFTNYWIGWVRQMPGKGLEWMGVIMPSDSYTRYSPSFQGQVTISADKSISTAYLQWSSLKASDTAMYYCARYGHGMYGGALDVWGQGTLVTVSS
VL: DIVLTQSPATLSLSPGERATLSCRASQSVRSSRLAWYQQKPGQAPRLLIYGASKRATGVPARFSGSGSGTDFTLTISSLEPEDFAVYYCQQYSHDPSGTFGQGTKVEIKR
modifications: DM4 maytansinoid conjugated via SPDB (printed SPDP in Table 2) linker; DM4/Ab 3.6; attachment residues not stated
B3: MF-T-SPDP-DM4 (antibody)
VH: QVELVQSGAEVKKPGESLKISCKGSGYSFTSYWIGWVRQAPGKGLEWMGIIDPGDSRTRYSPSFQGQVTISADKSISTAYLQWSSLKASDTAMYYCARGQLYGGTYMDGWGQGTLVTVSS
VL: DIALTQPASVSGSPGQSITISCTGTSSDIGGYNSVSWYQQHPGKAPKLMIYGVNNRPSGVSNRFSGSKSGNTASLTISGLQAEDEADYYCSSYDIESATPVFGGGTKLTVLGQDIVLTQPPSVSGAPGQRVTISCSGSSSNIGSNYVSWYQQLPGTAPKLLIYNDNQRPSGVPDRFSGSKSGTSASLAITGLQSEDEADYYCSTYDRRTFSVFGGGTKLTVLGQ
modifications: DM4 maytansinoid conjugated via SPDB (printed SPDP in Table 2) linker; DM4/Ab 3.6; attachment residues not stated
B4: MF-226-SPDP-DM4 (antibody, V domains shown)
VH: QVELVQSGAEVKKPGASVKVSCKASGYTFTGNYINWVRQAPGQGLEWMGIINPHGGDTKYAQKFQGRVTMTRDTSISTAYMELSSLRSEDTAVYYCARWHHGTWIFDYWGQGTLVTVSS
VL: DIVLTQPPSVSGAPGQRVTISCSGSSSNIGSNYVSWYQQLPGTAPKLLIYNDNQRPSGVPDRFSGSKSGTSASLAITGLQSEDEADYYCSTYDRRTFSVFGGGTKLTVLG
modifications: DM4 maytansinoid conjugated via SPDB (printed SPDP in Table 2) linker; DM4/Ab 3.3; attachment residues not stated
B5: MF-J Fab (Fab, V domains shown)
VH: QVELVQSGAEVKKPGESLKISCKGSGYSFTNYWIGWVRQMPGKGLEWMGVIMPSDSYTRYSPSFQGQVTISADKSISTAYLQWSSLKASDTAMYYCARYGHGMYGGALDVWGQGTLVTVSS
VL: DIVLTQSPATLSLSPGERATLSCRASQSVRSSRLAWYQQKPGQAPRLLIYGASKRATGVPARFSGSGSGTDFTLTISSLEPEDFATYYCQQYYDFPPTFGQGTKVEIKR
notes: Tested as Fab ('KD of Fab'); the Fab constant domains are not
B6: MOR 06640 Fab (Fab, V domains shown)
VH: QVQLVQSGAEVKKPGESLKISCKGSGYSFTNYWIGWVRQMPGKGLEWMGVIMPSDSYTRYSPSFQGQVTISADKSISTAYLQWSSLKASDTAMYYCARYGHGMYGGALDVWGQGTLVTVSS
VL: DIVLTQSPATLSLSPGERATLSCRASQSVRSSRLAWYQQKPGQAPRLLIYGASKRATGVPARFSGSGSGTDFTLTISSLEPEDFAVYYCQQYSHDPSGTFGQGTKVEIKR
notes: Tested as Fab ('KD of Fab'); the Fab constant domains are not; also called MOR6640
B7: MF-T Fab (Fab, V domains shown)
VH: QVELVQSGAEVKKPGESLKISCKGSGYSFTSYWIGWVRQAPGKGLEWMGIIDPGDSRTRYSPSFQGQVTISADKSISTAYLQWSSLKASDTAMYYCARGQLYGGTYMDGWGQGTLVTVSS
VL: DIALTQPASVSGSPGQSITISCTGTSSDIGGYNSVSWYQQHPGKAPKLMIYGVNNRPSGVSNRFSGSKSGNTASLTISGLQAEDEADYYCSSYDIESATPVFGGGTKLTVLG
notes: as for B5
B8: MF-226 Fab (Fab, V domains shown)
VH: QVELVQSGAEVKKPGASVKVSCKASGYTFTGNYINWVRQAPGQGLEWMGIINPHGGDTKYAQKFQGRVTMTRDTSISTAYMELSSLRSEDTAVYYCARWHHGTWIFDYWGQGTLVTVSS
VL: DIVLTQPPSVSGAPGQRVTISCSGSSSNIGSNYVSWYQQLPGTAPKLLIYNDNQRPSGVPDRFSGSKSGTSASLAITGLQSEDEADYYCSTYDRRTFSVFGGGTKLTVLG
notes: as for B5

Legend:
[1] = molecular target: mesothelin expressed on cells (transfected MiaPaCa-2, HT29 C2, CHO A9; endogenous HelaMatu, OVCAR-3) (Homo sapiens (Human), UniProt Q13421 296-598); experiment: cell-based or functional assay
[2] = molecular target: T1, mesothelin (40 kDa, C-terminal domain of the mesothelin precursor polypeptide) (Homo sapiens (Human), UniProt Q13421 296-598); experiment: KD of Fab; method not stated
T1 construct: Antigen of the Fab KD values
T1 sequence (Q13421 other isoform, or with tags, fused parts or gaps limits assumed): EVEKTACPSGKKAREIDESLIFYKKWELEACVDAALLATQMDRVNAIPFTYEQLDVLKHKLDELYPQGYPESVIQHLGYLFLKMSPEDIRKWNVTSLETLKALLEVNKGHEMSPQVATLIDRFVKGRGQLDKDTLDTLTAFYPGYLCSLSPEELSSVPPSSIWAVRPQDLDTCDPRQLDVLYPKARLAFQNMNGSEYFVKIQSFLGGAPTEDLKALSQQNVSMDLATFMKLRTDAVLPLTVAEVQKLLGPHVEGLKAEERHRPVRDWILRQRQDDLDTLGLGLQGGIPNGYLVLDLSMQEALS

mesothelin expressed on cells (transfected MiaPaCa-2, HT29 C2, CHO A9; endogenous HelaMatu, OVCAR-3), sequence (Q13421 other isoform, or with tags, fused parts or gaps limits assumed): as above

Row | Binder | IC50 (nM), cell viability (WST-1), CHO A9* (Mesothelin+) [1] | IC50 (nM), cell viability (WST-1), HT29 C2 (Mesothelin+) [1] | IC50 (nM), cell viability (WST-1), HelaMatu [1] | IC50 (nM), cell viability (WST-1), MiaPaCa-2 (Mesothelin+) [1] | IC50 (nM), cell viability (WST-1), OVCAR-3 [1] | Kd [2]
1 | B1 | 0.35 nM | 0.3 nM | 0.2 nM | 1.4 nM | 0.9 nM | 
2 | B2 | 1.2 nM | 0.21 nM | 0.6 nM | 0.36 nM | 1.07 nM | 
3 | B3 | 1 nM | 1.5 nM | 0.45 nM | 1.3 nM | 2.8 nM | 
4 | B4 | 1.3 nM | 8 nM | 0.9 nM | 21 nM | 14.8 nM | 
5 | B5 |  |  |  |  |  | 9.2 nM
6 | B6 |  |  |  |  |  | 0.19 nM
7 | B7 |  |  |  |  |  | 16.3 nM
8 | B8 |  |  |  |  |  | 58.3 nM
